In patent US20050058634A1:

How the values were obtained:
[1] = target: Soluble cation-independent mannose 6-phosphate receptor (CI-MPR) purified from fetal bovine serum, coupled to Affigel-15 beads (CI-MPR column) (bovine (fetal bovine serum)) (UniProt P08169); test: CI-MPR column fractionation, beta-glucuronidase activity (FIG. 6)
[2] = target: Soluble cation-independent mannose 6-phosphate receptor (CI-MPR) purified from fetal bovine serum, coupled to Affigel-15 beads (CI-MPR column) (bovine (fetal bovine serum)) (UniProt P08169); test: CI-MPR column fractionation; enzyme activity of fraction (starting material 1.41)
[3] = target: Soluble cation-independent mannose 6-phosphate receptor (CI-MPR) purified from fetal bovine serum, coupled to Affigel-15 beads (CI-MPR column) (bovine (fetal bovine serum)) (UniProt P08169); test: CI-MPR column fractionation; enzyme activity of fraction eluted with 5 mM M6P (starting material 1.41)

UniProt P08169, sequence (P08169 45-2313 limits assumed): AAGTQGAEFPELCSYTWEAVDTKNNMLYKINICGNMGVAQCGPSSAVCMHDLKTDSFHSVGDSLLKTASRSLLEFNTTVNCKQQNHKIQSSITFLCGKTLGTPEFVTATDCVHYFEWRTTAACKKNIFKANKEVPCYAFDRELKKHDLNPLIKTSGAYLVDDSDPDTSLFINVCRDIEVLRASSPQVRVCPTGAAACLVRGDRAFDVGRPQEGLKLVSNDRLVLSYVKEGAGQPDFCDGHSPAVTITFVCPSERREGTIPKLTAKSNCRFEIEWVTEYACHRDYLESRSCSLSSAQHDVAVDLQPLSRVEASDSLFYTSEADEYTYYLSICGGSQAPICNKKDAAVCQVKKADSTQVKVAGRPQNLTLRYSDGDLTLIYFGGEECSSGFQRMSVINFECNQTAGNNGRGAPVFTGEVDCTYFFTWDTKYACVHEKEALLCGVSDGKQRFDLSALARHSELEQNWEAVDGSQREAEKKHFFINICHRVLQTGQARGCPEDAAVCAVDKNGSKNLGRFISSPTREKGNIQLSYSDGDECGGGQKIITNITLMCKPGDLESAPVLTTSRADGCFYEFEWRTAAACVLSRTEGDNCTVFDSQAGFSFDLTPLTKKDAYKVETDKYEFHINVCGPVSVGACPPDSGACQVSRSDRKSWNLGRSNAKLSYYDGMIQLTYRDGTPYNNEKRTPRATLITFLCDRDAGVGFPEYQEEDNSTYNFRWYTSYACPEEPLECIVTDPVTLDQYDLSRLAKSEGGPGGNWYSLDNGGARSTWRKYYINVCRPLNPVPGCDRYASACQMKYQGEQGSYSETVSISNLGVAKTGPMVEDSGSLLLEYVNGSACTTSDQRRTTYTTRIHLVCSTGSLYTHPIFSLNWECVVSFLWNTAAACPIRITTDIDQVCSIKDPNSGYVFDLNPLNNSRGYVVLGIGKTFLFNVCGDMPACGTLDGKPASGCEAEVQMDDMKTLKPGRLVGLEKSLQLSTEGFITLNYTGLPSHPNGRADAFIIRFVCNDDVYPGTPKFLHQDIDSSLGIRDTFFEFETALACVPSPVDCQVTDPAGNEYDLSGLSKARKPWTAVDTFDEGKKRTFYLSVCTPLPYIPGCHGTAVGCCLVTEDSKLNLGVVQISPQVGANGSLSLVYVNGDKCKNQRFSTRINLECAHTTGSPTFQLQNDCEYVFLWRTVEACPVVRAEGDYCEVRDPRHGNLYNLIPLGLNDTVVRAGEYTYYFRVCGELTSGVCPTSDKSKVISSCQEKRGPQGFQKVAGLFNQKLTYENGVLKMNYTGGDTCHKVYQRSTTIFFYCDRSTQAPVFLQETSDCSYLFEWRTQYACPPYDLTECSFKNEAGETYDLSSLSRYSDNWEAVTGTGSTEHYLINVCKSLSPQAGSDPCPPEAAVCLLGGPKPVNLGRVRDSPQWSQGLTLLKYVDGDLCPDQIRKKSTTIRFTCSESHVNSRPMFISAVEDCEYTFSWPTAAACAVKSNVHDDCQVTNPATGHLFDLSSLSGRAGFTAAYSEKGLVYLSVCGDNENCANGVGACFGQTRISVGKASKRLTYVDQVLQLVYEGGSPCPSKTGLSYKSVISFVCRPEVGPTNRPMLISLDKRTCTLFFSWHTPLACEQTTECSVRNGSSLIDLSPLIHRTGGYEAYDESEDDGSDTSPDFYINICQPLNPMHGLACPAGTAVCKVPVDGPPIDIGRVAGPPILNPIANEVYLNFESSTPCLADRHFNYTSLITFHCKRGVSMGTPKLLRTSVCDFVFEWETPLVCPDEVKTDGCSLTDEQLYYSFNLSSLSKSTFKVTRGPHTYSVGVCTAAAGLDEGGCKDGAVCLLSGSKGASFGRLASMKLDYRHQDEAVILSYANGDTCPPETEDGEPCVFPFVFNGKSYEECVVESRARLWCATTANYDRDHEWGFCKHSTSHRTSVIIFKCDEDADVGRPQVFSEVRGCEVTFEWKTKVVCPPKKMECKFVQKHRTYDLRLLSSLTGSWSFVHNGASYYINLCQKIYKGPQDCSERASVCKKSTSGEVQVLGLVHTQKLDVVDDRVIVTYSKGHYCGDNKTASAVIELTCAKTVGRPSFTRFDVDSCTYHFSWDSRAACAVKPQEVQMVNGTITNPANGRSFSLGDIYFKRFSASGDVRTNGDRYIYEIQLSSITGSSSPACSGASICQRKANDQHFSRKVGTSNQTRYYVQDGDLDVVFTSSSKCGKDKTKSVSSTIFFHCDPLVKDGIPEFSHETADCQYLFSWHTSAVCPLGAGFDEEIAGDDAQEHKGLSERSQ

Substance: oxidized beta-glucuronidase conjugated with phosphopentamannose-hydrazine (enzyme)
- percent of starting activity in the M6P elution fraction [1]: 5%
- percent of starting activity in the flow through [1]: 19%
- O.D. at 400 nm (beta-glucuronidase activity in column flow-through, unbound) [2]: 0.27 OD 400 nm
- O.D. at 400 nm (beta-glucuronidase activity in final wash) [2]: 0 OD 400 nm
- O.D. at 400 nm (beta-glucuronidase activity in M6P elution, bound) [3]: 0.06 OD 400 nm
